Source: PMC12225155

Target: importin α5 (UniProt P52294)
Test: co-immunoprecipitation, western blot
Settings: reference: KIAA1429-WT; sites S1579

Question: Which “binding against the reference” value does the source give for “KIAA1429 (VIRMA) (from UniProt Q69YN4) KIAA1429-SA (S1579A)” here?
Answer: stronger
